Patent US20230183177A1, “ENANTIOSELECTIVE CHEMO-ENZYMATIC SYNTHESIS OF OPTICALLY ACTIVE AMINO AMIDE COMPOUNDS” (priority 2020, published 2023)

Tests used:
[1] = Substrate stability experiments: decomposition of rac-1 at different pH (Feigl-Anger paper, HPLC); assay type: physicochemical
Experimental: . In addition, the substrate was dissolved in ethanol as control. 100 μL of the rac-1 solutions were pipetted into a 96-well micro titer plate and covered with Feigl-Anger filter paper. Color development was documented by taking pictures (see FIG. 3).
To investigate the velocity of rac-1 decomposition at different pH, rac-1 was dissolved in different buffer, ranging from pH 5 to pH 10, and extracted immediately, after 2 and after 60 min, respectively, with 1 volume ethyl acetate. Extracts were dried over Na2SO4 and the supernatant evaporated using a vacuum centrifuge. The remaining substances (including rac-1) were dissolved in 100 μL of ethanol.
(R)- and (S)-1 were separated by a Chiralpak AD-H using n-heptane and ethanol in a ratio 90:10 as the mobile phase, at a flow rate of 1 mL/min for 8 min. The compounds were detected at 210 nm (DAD). Retention times of (R)- and (S)-1 were 4.2 min and 4.7 min, respectively.

[2] = Biocatalytic conversions with target substrate rac-1 by NHase-CFE or cells, chiral HPLC analysis; assay type: biochemical; settings: for conversion / e.e. for (S): bioconversion of 100 mM rac-1; for conversion [%]: 300 rpm overnight; for eeP [%]: excess of (S); for Conv. [%]: NHase-CFE, overnight

CCC(C#N)N1CCCC1 (racemic) [rac-1, 2-(Pyrrolidin-1-yl)butanenitrile]
Percent (HPLC peak area vs zero value) ([1]; pH 5, 2 min): 57%
Percent (HPLC peak area vs zero value) ([1]; pH 5, 1 hour): 32%
Percent (HPLC peak area vs zero value) ([1]; pH 6, 2 min): 54%
Percent (HPLC peak area vs zero value) ([1]; pH 6, 1 hour): 23%
Percent (HPLC peak area vs zero value) ([1]; pH 6.5, 2 min): 47%
Percent (HPLC peak area vs zero value) ([1]; pH 6.5, 1 hour): 22%
Percent (HPLC peak area vs zero value) ([1]; pH 7, 2 min): 57%
Percent (HPLC peak area vs zero value) ([1]; pH 7, 1 hour): 44%
Percent (HPLC peak area vs zero value) ([1]; pH 7.5, 2 min): 66%
Percent (HPLC peak area vs zero value) ([1]; pH 7.5, 1 hour): 50%
Percent (HPLC peak area vs zero value) ([1]; pH 9, 2 min): 83%
Percent (HPLC peak area vs zero value) ([1]; pH 9, 1 hour): 87%
Percent (HPLC peak area vs zero value) ([1]; pH 10, 2 min): 78%
Percent (HPLC peak area vs zero value) ([1]; pH 10, 1 hour): 86%
conversion [2]: 29.3%
e.e. for (S) [2]: 92.8%

CC[C@@H](C(N)=O)N1CCCC1=O [compound 4, (S)-2-(2-oxopyrrolidin-1-yl)butane amide, reference compound]
conversion [2]: 51.8%
e.e. for (S) [2]: 92.1%

B1: KoNHase: nitrile hydratase from Klebsiella oxytoca (protein, listed as Klebsiella oxytoca)
alpha: MSHKHDHDHTHPPVDIELRVRALESLLQEKGLIDPAALDELIDTYEHKVGPRNGAQVVARAWSDPEYKRRLMENATAAIAELGFSGIQGEDMLVVENTPDVHNVTVCTLCSCYPWPVLGLPPVWYKSAPYRSRIVIDPRGVLAEFGLHIPENKEIRVWDSSAELRYLVLPERPAGTEGWSEAQLSELITRDSMIGTGVVSAP
beta: MNGIHDLGGMHGLGPIPTEENEPYFHHEWERRVFPLFASLFVGGHFNVDEFRHAIERMAPTEYLQSSYYEHWLHAFETLLLAKGAITVEELWGGAKPAPCKPGTPVLTQEMVSMVVSTGGSARVSHDVAPRFRVGDWVRTKNFNPTTHTRLPRYARDKVGRIEIAHGVFITPDTAAHGLGEHPQHVYSVSFTAQALWGEPRPDKVFIDLWDDYLEEA
activity after cobalt pre-incubation (1 or 2 mM CoCl2, 2 h, 25° C.): lower activity than the control reaction
activity towards methacrylonitrile (MAN) hydrolysis (NHase-CFE, 114 mM substrate, pH 7.2, 25° C.): high activity
stability after longer incubation at high pH (incubated at pH 9 or 9.5, 25° C., then MAN assay): loses activity with time at pH 9.5
activity at high pH (methacrylonitrile hydration, carbonate buffer pH 10): still active at pH 10
thermal stability at 37° C. (pH 8): seem stable
enantioselectivity for (S)-2 [2]: 78%
conversion [%] ([2]; Table 4: 10 mM rac-1, NHase-CFE, 500 μL, pH 7.2, 25° C.): 5.3%
conversion [%] ([2]; Table 5: 10 mM rac-1, NHase-CFE, pH 7.2, 37° C.): 4.4%
conversion [%] ([2]; Table 5: 10 mM rac-1, NHase-CFE, pH 7.2, 50° C.): 3.8%
eeP [%] ([2]; Table 5: 37° C., —^a: only (S)-amide was detected): 83 (S) %
eeP [%] ([2]; Table 5: 50° C., —^a: only (S)-amide was detected): 78 (S) %
Conv. [%] ([2]; Table 6: 10 mM substrate, 25° C., pH 7.2): 5.3%
eeP [%] ([2]; Table 6: 10 mM substrate): 79 (S) %
Conv. [%] ([2]; Table 6: 50 mM substrate, 25° C., pH 7.2): 6.2%
eeP [%] ([2]; Table 6: 50 mM substrate): 79 (S) %
Conv. [%] ([2]; Table 6: 100 mM substrate, 25° C., pH 7.2): 2.6%
eeP [%] ([2]; Table 6: 100 mM substrate): 75 (S) %
Enantioselectivity eeP [%] ([2]; pH 7.2): 79 (S) %
enantiomeric excess of the product for (S)-2 ([2]; time study: 20 mM substrate, CFE, 25° C., pH 7.2): 81%
